Experimental data taken from article PMC2563146.

Biological target: Gal4-ARNT-ΔTAD (PL283), Gal DNA-binding domain fusion of ARNT deleted for the transactivation domain
Experiment: two-hybrid

fold increase of luciferase activity with 1nM TCDD [fold]	Substance
10	full-length AHRdbd, 'fish' of the mammalian two-hybrid (pTgTAHRdbd, PL1548) (from UniProt P30561 10-848) (natural protein)
3	wild-type AHR, 'fish' of the mammalian two-hybrid (pTgTAHRs, PL1550) (from UniProt P30561 10-848) (natural protein)
